Experimental data as given in publication PMC4249841.

Molecular target: Hsp70-mCherry (human, cytoplasmic, heat-inducible hsp70 (hsp72) with a C-terminal mCherry tag) (human) (UniProt P0DMV8)
Assay: FRET or BRET; live U2OS cells co-expressing the GFP-tagged PGK (donor) and the mCherry-tagged partner (acceptor); donor/acceptor (D/A) fluorescence ratio per cell under steady illumination, temperature titration 20°C-45°C, fitted by a two-state model

Sequence of UniProt P0DMV8 (P0DMV8 whole entry): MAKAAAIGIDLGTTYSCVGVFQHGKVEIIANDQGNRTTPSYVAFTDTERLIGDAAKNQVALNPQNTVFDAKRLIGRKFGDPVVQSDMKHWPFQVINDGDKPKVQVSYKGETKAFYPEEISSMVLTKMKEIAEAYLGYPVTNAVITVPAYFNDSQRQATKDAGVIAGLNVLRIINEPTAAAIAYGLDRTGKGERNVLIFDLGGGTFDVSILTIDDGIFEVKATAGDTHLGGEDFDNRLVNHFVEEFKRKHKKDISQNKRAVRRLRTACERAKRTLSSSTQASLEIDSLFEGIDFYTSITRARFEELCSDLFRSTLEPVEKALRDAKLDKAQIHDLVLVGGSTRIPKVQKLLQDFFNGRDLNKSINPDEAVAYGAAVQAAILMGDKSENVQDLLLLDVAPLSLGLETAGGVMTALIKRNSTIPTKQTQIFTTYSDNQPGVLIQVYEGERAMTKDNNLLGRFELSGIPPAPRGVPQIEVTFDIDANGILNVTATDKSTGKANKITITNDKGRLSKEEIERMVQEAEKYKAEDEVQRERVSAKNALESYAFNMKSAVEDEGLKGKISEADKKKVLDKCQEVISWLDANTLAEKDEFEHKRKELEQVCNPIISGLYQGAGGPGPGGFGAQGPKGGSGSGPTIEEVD

temperature midpoint of binding: 39 °C | temperature of binding onset: 35 °C
Substance: ltPGK-GFP (low melting temperature mutant of phosphoglycerate kinase, Y122W/W308F/W333F, with an N-terminal GFP tag) (enzyme)
